Measurements reported in patent US20070086998A1.

What was measured:
[1] = biological target: HLA-DR as expressed on the tumor cell line; assay: cell-based or functional assay
[2] = biological target: HLA-DR on LG-2 cells (human); assay: cell-based or functional assay

Chain of L243 (antibody) (VH): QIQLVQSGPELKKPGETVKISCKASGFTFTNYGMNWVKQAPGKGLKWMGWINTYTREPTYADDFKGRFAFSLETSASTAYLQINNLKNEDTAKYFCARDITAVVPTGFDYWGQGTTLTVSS
Chain of L243 (antibody) (VL): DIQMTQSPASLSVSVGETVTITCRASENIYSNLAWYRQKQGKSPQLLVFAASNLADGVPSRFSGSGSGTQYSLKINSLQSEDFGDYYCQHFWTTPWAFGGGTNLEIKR

For L243 (antibody), which % Killing by mAb; ARH-77 (DR 12); 200 nM, 4 h [1] is on record?
The % Killing by mAb; ARH-77 (DR 12); 200 nM, 4 h was 88%.

And the % Killing by mAb; BJAB (DR 12,13); 200 nM, 4 h [1]?
Its % Killing by mAb; BJAB (DR 12,13); 200 nM, 4 h is 53%.

And the % Killing by mAb; BONNA-12; 200 nM, 4 h [1]?
Its % Killing by mAb; BONNA-12; 200 nM, 4 h is 92%.

What about the % Killing by mAb; DOHH-2 (DR 1,2); 200 nM, 4 h [1] of the same substance?
Its % Killing by mAb; DOHH-2 (DR 1,2); 200 nM, 4 h is 29%.

What about the % Killing by mAb; EOL-1; 200 nM, 4 h [1] of the same substance?
Its % Killing by mAb; EOL-1; 200 nM, 4 h is 22%.

What about the % Killing by mAb; GRANTA-519 (DR 2,11); 200 nM, 4 h [1] of the same substance?
Its % Killing by mAb; GRANTA-519 (DR 2,11); 200 nM, 4 h is 83%.

And the % Killing by mAb; HC-1; 200 nM, 4 h [1]?
Its % Killing by mAb; HC-1; 200 nM, 4 h is 88%.

And the % Killing by mAb; HD-MY-Z; 200 nM, 4 h [1]?
The % Killing by mAb; HD-MY-Z; 200 nM, 4 h was 35%.

What about the % Killing by mAb; HDLM-2; 200 nM, 4 h [1] of the same substance?
Its % Killing by mAb; HDLM-2; 200 nM, 4 h is 77%.

What about the % Killing by mAb; KARPAS-299 (DR 1,2); 200 nM, 4 h [1] of the same substance?
The % Killing by mAb; KARPAS-299 (DR 1,2); 200 nM, 4 h was 78%.

And the % Killing by mAb; KARPAS-422 (DR 2,4); 200 nM, 4 h [1]?
Its % Killing by mAb; KARPAS-422 (DR 2,4); 200 nM, 4 h is 25%.

And the % Killing by mAb; KM-H2; 200 nM, 4 h [1]?
Its % Killing by mAb; KM-H2; 200 nM, 4 h is 81%.

And the % Killing by mAb; L1236; 200 nM, 4 h [1]?
The % Killing by mAb; L1236; 200 nM, 4 h was 52%.

And the % Killing by mAb; L-363; 200 nM, 4 h [1]?
The % Killing by mAb; L-363; 200 nM, 4 h was 6%.

And the % Killing by mAb; L-428 (DR 12); 200 nM, 4 h [1]?
The % Killing by mAb; L-428 (DR 12); 200 nM, 4 h was 82%.

What about the % Killing by mAb; LP-1; 200 nM, 4 h [1] of the same substance?
Its % Killing by mAb; LP-1; 200 nM, 4 h is 12%.

What about the % Killing by mAb; MHH-CALL-4 (DR 1,2); 200 nM, 4 h [1] of the same substance?
The % Killing by mAb; MHH-CALL-4 (DR 1,2); 200 nM, 4 h was 35%.

And the % Killing by mAb; MHH-PREB-1; 200 nM, 4 h [1]?
Its % Killing by mAb; MHH-PREB-1; 200 nM, 4 h is 3%.

And the % Killing by mAb; MN-60 (DR 10,13); 200 nM, 4 h [1]?
Its % Killing by mAb; MN-60 (DR 10,13); 200 nM, 4 h is 46%.

And the % Killing by mAb; NALM-1 (DR 1,4); 200 nM, 4 h [1]?
The % Killing by mAb; NALM-1 (DR 1,4); 200 nM, 4 h was 44%.

And the % Killing by mAb; RAJI (DR 10,17); 200 nM, 4 h [1]?
Its % Killing by mAb; RAJI (DR 10,17); 200 nM, 4 h is 69%.

What about the % Killing by mAb; RPMI-8226; 200 nM, 4 h [1] of the same substance?
Its % Killing by mAb; RPMI-8226; 200 nM, 4 h is 6%.

And the % Killing by mAb; SR-786 (DR 1,2); 200 nM, 4 h [1]?
The % Killing by mAb; SR-786 (DR 1,2); 200 nM, 4 h was 3%.

And the % Killing by mAb; LG-2 (DR 1,1); 200 nM, 4 h [2]?
Its % Killing by mAb; LG-2 (DR 1,1); 200 nM, 4 h is 79%.
